Assay results published in patent US8951758B2, “GH61 glycoside hydrolase protein variants and cofactors that enhance GH61 activity” (Codexis, Inc., priority 2011, dated 2015).

Legend:
Assay type in all cases: biochemical
[1] = tested on: acid-pretreated corn stover; assay: Shake flask saccharification with CF-416 whole broth enzymes with 0 or 50 μM CuSO4 at pH 5.0 or pH 6.0 (FIG. 4); details: 50 μM vs 0 CuSO4; for increase in glucose yields: CF-416 whole broth enzymes 0.81%, 72 hours, 55° C.
Description: This Example describes experiments designed to determine the effects of added copper in saccharification reactions. The saccharification reactions were run in 30g shake flasks (250 mL flasks) using 82g/kg glucan of acid-pretreated corn stover and whole broth enzymes produced by M. thermophila strain CF-416 (produced using standard methods known in the art) at a 0.81% total enzyme load with respect to glucan. […] A pH trim was also performed using 2M NaOH at time intervals of 1, 4, 7, 22, 24 29, 46, 52, 70, 75 and 96 hrs, to maintain the pH at the desired value of pH 5.0 or pH 6.0. Samples were removed at 72 hours and the total amount of glucose in the reaction mixture was determined using standard HPLC methods and equipment as known in the art.

[2] = tested on: pretreated corn stover (PCS); assay: Supplementation of CF-416 whole cellulase broth with single purified enzymes, saccharification of pretreated corn stover; details: 0.4% single enzyme added to 0.5% CF-416 whole cellulase broth base; 74 g/L glucan, pH 5.0, 55° C., 50 μM copper
Description: (§1) In this Example, M. thermophila-produced and purified GH61a, GH61p, GH61f, GH61n, CBH1a, CBH2b, AXE3, FAE, and Xyl3, were used to supplement the activity present in culture broths (i.e., “whole broth cellulase base”) of the M. thermophila strain CF-416 prepared using standard methods known in the art. The broth cellulase base was fixed to 0.5% protein and the single purified enzyme was added at 0.4% (wt added protein/wt glucan) to the saccharification reactions. The whole cellulase broth base and individual enzymes were characterized by standard BCA assays for total protein quantification.
(§2) The saccharification reactions were carried out at 74 g/L glucan load of pretreated wheat straw (PWS) or pretreated corn stover (PCS) at pH 5.0, 55° C. at 950 rpm in the presence of 50 μM copper in high throughput (HTP) 96 deep well plates. Glucose analysis was carried out by the glucose oxidase assay as described above. In each case, the fold improvement was calculated using the formula Fold Improvement=[Total Glucose Production with addition of 0.4% single enzyme to the whole cellulase broth base]/[glucose production from the 0.5% whole cellulase broth base]. In this Table, the fold improvements were ranked from 0 to 3; fold improvements less than 1.2× are indicated by “0,” fold improvements of >1.2 to <1.5 are indicated by “1,” fold improvements of ≧1.5× to <1.7× improvements are indicated by “2,” and fold improvements ≧1.7 are indicated by “3.”

[3] = tested on: pretreated wheat straw (PWS); assay: Supplementation of CF-416 whole cellulase broth with single purified enzymes, saccharification of pretreated wheat straw; details: 0.4% single enzyme added to 0.5% CF-416 whole cellulase broth base; 74 g/L glucan, pH 5.0, 55° C., 50 μM copper
Description: as §1, §2

pre-treated wheat straw = assay: Biomass assay of GH61a pre-incubated with or supplemented by copper(II) (FIG. 3); details: pre-incubated with copper(II) (CuSO4) 0 to 100 μM, 72 h, pH 5, 55° C.
Description: Purified M. thermophila-produced GH61a or S. cerevisiae supernatant containing M. thermophila-GH61a was pre-incubated with different amounts of copper(II) (CuSO4) at concentrations of 0 to 100 μM at ambient temperature for 30 min. The biomass assay was then performed in a total volume of 300 μL, in the presence of 10 mg of pre-treated wheat straw, using 261 μL of copper-treated GH61 samples, 39 μL of sodium acetate buffer (pH 5), M. thermophila-produced CBH1a, CBH2b and β-glucosidase. The final concentration of sodium acetate was 120 mM and the enzyme loads of CBHs and β-glucosidase (CBH1a and CBH2b in 1:1 ratio) were 0.01% and 0.02% with respect to substrate glucan mass in the biomass substrate, respectively. Background (negative) controls were obtained by using either water or media supernatant from cultures of S. cerevisiae cells without the GH61a gene in the plasmid. Thus, the negative controls represent activities of CBH1a, CBH2b and beta-glucosidase in the absence of GH61a. The reaction was incubated at 55° C. for 72 hours with shaking.
Some experiments were also performed without pre-incubating GH61 with copper(II), but instead, by directly adding different amounts of copper(II) (CuSO4) to the biomass assay reactions as described herein.
Biomass assays were performed with (A) S. cerevisiae-produced M. thermophila GH61a Variant 5, and (B) M. thermophila-produced wild-type GH61a. Glucose production after 72 h incubation at pH 5, 55° C. was determined by the glucose assay. The data in this Figure indicate GH61a-only activity, in which the amount of glucose produced in control reaction containing CBH and β-glucosidase was subtracted from the total amount of glucose produced in the reactions with GH61a. In this Figure, N=4; and the error bars represent ±1 standard deviation. Copper concentrations shown are with respect to the total reaction volume.

Molecule | Fold Improvement Over Whole Cellulase Broth Tested on PCS [2] | Fold Improvement Over Whole Cellulase Broth Tested on PWS [3] | further results
O=S(=O)([O-])[O-].[Cu+2] [copper(II), CuSO4] |  |  | total amounts of C5 sugars produced ([1]; FIG. 4, Panel B): may cause a decrease; increase in glucose yields ([1]; saccharification pH 5.0): ~3.5%; increase in glucose yields ([1]; saccharification pH 6.0): not observed
Xyl3: wild-type M. thermophila xylanase (SEQ ID NO:149) (protein, listed as Myceliophthora thermophila) MHSKAFLAALLAPAVSGQLNDLAVRAGLKYFGTALSESVINSDTRYAAILSDKSMFGQLVPENGMKWDATEPSRGQFNYASGDITANTAKKNGQGMRCHTMVWYSQLPSWVSSGSWTRDSLTSVIETHMNNVMGHYKGQCYAWDVINEAINDDGNSWRDNVFLRTFGTDYFALSFNLAKKADPDTKLYYNDYNLEYNQAKTDRAVELVKMVQAAGAPIDGVGFQGHLIVGSTPTRSQLATALQRFTALGLEVAYTELDIRHSSLPASSSALATQGNDFANVVGSCLDTAGCVGVTVWGFTDAHSWIPNTFPGQGDALIYDSNYNKKPAWTSISSVLAAKATGAPPASSSTTLVTITTPPPASTTASSSSSATPTSVPTQTRWGQCGGIGWTGPTQCESPWTCQKLNDWYWQCL | 0 (fold improvements less than 1.2×) | 1 (fold improvements of >1.2 to <1.5) | 
GH61f: M. thermophila GH61f (SEQ ID NO:29) (protein, listed as Myceliophthora thermophila) MKSFTLTTLAALAGNAAAHATFQALWVDGVDYGAQCARLPASNSPVTDVTSNAIRCNANPSPARGKCPVKAGSTVTVEMHQQPGDRSCSSEAIGGAHYGPVMVYMSKVSDAASADGSSGWFKVFEDGWAKNPSGGSGDDDYWGTKDLNSCCGKMNVKIPADLPSGDYLLRAEALALHTAGSAGGAQFYMTCYQLTVTGSGSASPPTVSFPGAYKATDPGILVNIHAPLSGYTVPGPAVYSGGSTKKAGSACTGCESTCAVGSGPTATVSQSPGSTATSAPGGGGGCTVQKYQQCGGQGYTGCTNCASGSTCSAVSPPYYSQCV | 1 (fold improvements of >1.2 to <1.5) | 1 (fold improvements of >1.2 to <1.5) | 
E104H/K167A (protein) MSKASALLAGLTGAALVAAHGHVSHIVVNGVYYRNYDPTTDWYQPNPPTVIGWTAADQDNGFVEPNSFGTPDIICHKSATPGGGHATVAAGDKINIVWTPEWPHSHIGPVIDYLAACNGDCETVDKSSLRWFKIDGAGYDKAAGRWAADALRANGNSWLVQIPSDLAAGNYVLRHEIIALHGAQSPNGAQAYPQCINLRVTGGGSNLPSGVAGTSLYKATDPGILFNPYVSSPDYTVPGPALIAGAASSIAQSTSVATATGTATVPGGGGANPTATTTAATSAAPSTTLRTTTTSAAQTTAPPSGDVQTKYGQCGGNGWTGPTVCAPGSSCSVLNEWYSQCL |  |  | GH61a-only activity (glucose production) when Cu^++ is included in the reaction (pre-treated wheat straw): increase; GH61a-only activity (glucose production) when Cu^++ is included in the reaction (pre-treated wheat straw; listed as S. cerevisiae supernatant containing M. thermophila-GH61a): improved
FAE: wild-type M. thermophila ferulic acid esterase (SEQ ID NO:170) (protein, listed as Myceliophthora thermophila) MISVPALALALLAAVQVVESASAGCGKAPPSSGTKSMTVNGKQRQYILQLPNNYDANKAHRVVIGYHWRDGSMNDVANGGFYDLRSRAGDSTIFVAPNGLNAGWANVGGEDITFTDQIVDMLKNDLCVDETQFFATGWSYGGAMSHSVACSRPDVFKAVAVIAGAQLSGCAGGTTPVAYLGIHGAADNVLPIDLGRQLRDKWLQTNGCNYQGAQDPAPGQQAHIKTTYSCSRAPVTWIGHGGGHVPDPTGNNGVKFAPQETWDFFDAAVGAAGAQSPMT | 1 (fold improvements of >1.2 to <1.5) | 1 (fold improvements of >1.2 to <1.5) | 

Second part, led by results:

Fold Improvement Over Whole Cellulase Broth Tested on PCS [2] | Fold Improvement Over Whole Cellulase Broth Tested on PWS [3] | Molecule | further results
0 (fold improvements less than 1.2×) | 1 (fold improvements of >1.2 to <1.5) | AXE3: wild-type M. thermophila acetylxylan esterase (SEQ ID NO:167) (protein, listed as Myceliophthora thermophila) MKLLGKLSAALALAGSRLAAAHPVFDELMRPTAPLVRPRAALQQVTNFGSNPSNTKMFIYVPDKLAPNPPIIVAIHYCTGTAQAYYSGSPYARLADQKGFIVIYPESPYSGTCWDVSSRAALTHNGGGDSNSIANMVTYTLEKYNGDASKVFVTGSSSGAMMTNVMAAAYPELFAAGIAYSGVPAGCFYSQSGGTNAWNSSCANGQINSTPQVWAKMVFDMYPEYDGPRPKMQIYHGSADGTLRPSNYNETIKQWCGVFGFDYTRPDTTQANSPQAGYTTYTWGEQQLVGIYAQGVGHTVPIRGSDDMAFFGL | 
1 (fold improvements of >1.2 to <1.5) | 3 (fold improvements ≧1.7) | CBH1a: wild-type M. thermophila CBH1a (SEQ ID NO:128) (protein, listed as Myceliophthora thermophila) MYAKFATLAALVAGAAAQNACTLTAENHPSLTYSKCTSGGSCTSVQGSITIDANWRWTHRTDSATNCYEGNKWDTSWCSDGPSCASKCCIDGADYSSTYGITTSGNSLNLKFVTKGQYSTNIGSRTYLMESDTKYQMFQLLGNEFTFDVDVSNLGCGLNGALYFVSMDADGGMSKYSGNKAGAKYGTGYCDSQCPRDLKFINGEANVENWQSSTNDANAGTGKYGSCCSEMDVWEANNMAAAFTPHPCTVIGQSRCEGDSCGGTYSTDRYAGICDPDGCDFNSYRQGNKTFYGKGMTVDTTKKITVVTQFLKNSAGELSEIKRFYVQNGKVIPNSESTIPGVEGNSITQDWCDRQKAAFGDVTDFQDKGGMVQMGKALAGPMVLVMSIWDDHAVNMLWLDSTWPIDGAGKPGAERGACPTTSGVPAEVEAEAPNSNVIFSNIRFGPIGSTVSGLPDGGSGNPNPPVSSSTPVPSSSTTSSGSSGPTGGTGVAKHYEQCGGIGFTGPTQCESPYTCTKLNDWYSQCL | 
1 (fold improvements of >1.2 to <1.5) | 1 (fold improvements of >1.2 to <1.5) | GH61n: M. thermophila GH61n (SEQ ID NO:62; alternative SEQ ID NO:64) (protein, listed as Myceliophthora thermophila) MTKNAQSKQGVENPTSGDIRCYTSQTAANVVTVPAGSTIHYISTQQINHPGPTQYYLAKVPPGSSAKTFDGSGAVWFKISTTMPTVDSNKQMFWPGQNTYETSNTTIPANTPDGEYLLRVKQIALHMASQPNKVQFYLACTQIKITGGRNGTPSPLVALPGAYKSTDPGILVDIYSMKPESYQPPGPPVWRG | 
